The subject of one data set is HCT-116 tumors. Conditions: mouse, in vivo.
Data set [1] deals with TEM8 (CHO-TEM8 cells), binding of Anthrax PA (Homo sapiens, UniProt Q9H6X2).
The target of data set [2] is T1, mouse TEM8 (293/mTEM8 cells) (Mus musculus, UniProt Q9CZ52).
T1 construct: expressed in transfected cells
Put plainly: Flow cytometry binding to 293/mTEM8 cells. The procedure:
293 cells were obtained from ATCC. 293 cells were cultured in DMEM supplemented with 10% FBS. 293 cells expressing mouse (293-mTEM8) or a flag-tagged human TEM8 (293/Flag-huTEM8) were generated by lipofectamine 2000 mediated stable transfection of 293 cells with a mTEM8/pcDNA3 or a Flag-huTEM8/pcDNA3 expression vector (Yang et al., Biochim Biophys Acta 1813(1):39-49, 2011). Because transfected cells expressed variable levels of TEM8 (see 293/mTEM8 cells in FIG. 8C) they were subsequently enriched for surface expression by florescence activated cell sorting (FACS) using anti-AF344 (293/mTEM8) (Yang et al., Biochim Biophys Acta 1813(1):39-49, 2011) or anti-FLAG antibodies (293/Flag-hTEM8) (M2 clone, Sigma).
(§1) Trypsinized cells were rinsed in cold PBS/0.5% BSA (PBS/BSA) and labeled with anti-TEM8 Fabs (human) or full IgG (human-mouse) primary antibodies in PBS/BSA containing 10% goat serum at 4° C. Cells were rinsed with PBS/BSA and incubated with FITC-conjugated goat anti-human Fab or anti-mouse IgG secondary antibodies (Jackson Immunoresearch, West Grove, Pa.), rinsed again, and analyzed on a FACScalibur flow cytometer (Becton Dickinson, Franklin Lakes, N.J.) using CellQuest™ Software.
(In general: A flow cytometer gives signals particle by particle.)

In data set [3] the target is T2, purified recombinant hTEM8(ED)-Fc fusion protein (Homo sapiens, UniProt Q9H6X2).
T2 sequence (Q9H6X2 33-321): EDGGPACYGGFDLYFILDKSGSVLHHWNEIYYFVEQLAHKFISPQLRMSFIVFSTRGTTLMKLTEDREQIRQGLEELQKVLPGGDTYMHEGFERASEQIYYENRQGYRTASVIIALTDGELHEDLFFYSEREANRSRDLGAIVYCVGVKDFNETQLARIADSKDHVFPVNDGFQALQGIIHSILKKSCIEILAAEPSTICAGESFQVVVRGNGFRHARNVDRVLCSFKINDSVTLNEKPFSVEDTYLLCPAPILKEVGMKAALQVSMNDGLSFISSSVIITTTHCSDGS
Put plainly: ELISA of Fabs on TEM8(ED)-Fc. For orientation: In an ELISA, binding on a coated surface is turned into a signal by an enzyme label.

In data set [4] the target is T3, human TEM8 (293/Flag-hTEM8 cells) (Homo sapiens, UniProt Q9H6X2).
T3 construct: expressed in transfected cells
The data set is described as follows: Flow cytometry / immunofluorescence binding to 293/Flag-hTEM8 cells. Conditions: immunofluorescence staining and flow cytometry. Here is the method: 293 cells were obtained from ATCC. 293 cells were cultured in DMEM supplemented with 10% FBS. 293 cells expressing mouse (293-mTEM8) or a flag-tagged human TEM8 (293/Flag-huTEM8) were generated by lipofectamine 2000 mediated stable transfection of 293 cells with a mTEM8/pcDNA3 or a Flag-huTEM8/pcDNA3 expression vector (Yang et al., Biochim Biophys Acta 1813(1):39-49, 2011).
as §1

T1 sequence (Q9CZ52 31-562): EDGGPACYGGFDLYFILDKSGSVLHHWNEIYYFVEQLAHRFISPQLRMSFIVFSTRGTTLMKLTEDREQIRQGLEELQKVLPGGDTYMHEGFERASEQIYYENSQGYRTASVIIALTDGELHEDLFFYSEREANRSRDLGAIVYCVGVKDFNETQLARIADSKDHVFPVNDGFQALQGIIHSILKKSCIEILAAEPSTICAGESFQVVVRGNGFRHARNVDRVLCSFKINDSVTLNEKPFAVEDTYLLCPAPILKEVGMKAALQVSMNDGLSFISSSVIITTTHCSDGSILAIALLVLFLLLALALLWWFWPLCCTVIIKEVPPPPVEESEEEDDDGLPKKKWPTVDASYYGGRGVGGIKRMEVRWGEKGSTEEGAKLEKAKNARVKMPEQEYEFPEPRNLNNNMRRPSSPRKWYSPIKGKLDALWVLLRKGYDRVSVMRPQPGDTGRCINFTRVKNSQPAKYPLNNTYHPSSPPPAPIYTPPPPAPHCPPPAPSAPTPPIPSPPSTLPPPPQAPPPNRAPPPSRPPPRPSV
T3 sequence (Q9H6X2 33-564): as the sequence (Q9CZ52 31-562) above, with R40K, S104R, A241S, V297I, V327A, S458N, T468A, P471T, A493P counted along it

As for `O=c1[nH]cc(F)c(=O)[nH]1` [Antibody 5-FU, 5-fluorouracil], the “body weight in HCT116 tumor-bearing mice” value with HCT-116 tumors is recorded as “small, albeit non-significant, reduction in body weight”.
As to `CCc1c2c(nc3ccc(OC(=O)N4CCC(N5CCCCC5)CC4)cc13)-c1cc3c(c(=O)n1C2)COC(=O)[C@]3(O)CC` [IRT, irinotecan], the “body weight in HCT116 tumor-bearing mice” value in the data set with HCT-116 tumors was “small, albeit non-significant, reduction in body weight”.

B1: L3 Fab: fully human anti-TEM8 Fab from phage display; VH SEQ ID NO: 3, VL SEQ ID NO: 8; Fab chains SEQ ID NOs: 28, 29 (antibody)
heavy: QVQLQQSGPGLVKPSQTLSLTCAISGDSVSTNGAAWGWIRQSPGRGLEWLGRIYYRSKWYNDYAVSVKSRITINPDTSKNQFSLQLNSVTPEDTAVYYCARMPGGFLFDLWGQGTLVTVSSASTKGPSVFPLAPSSKSTSGGTAALGCLVKDYFPEPVTVSWNSGALTSGVHTFPAVLQSSGLYSLSSVVTVPSSSLGTQTYICNVNHKPSNTKVDKKVEPKSEF
light: DIELTQPPSVSVAPGQTARISCSGDNIRSYYAHWYQQKPGQAPVLVIYGDSKRPSGIPERFSGSNSGNTATLTISGTQAEDEADYYCSSYASHDYVFGGGTKLTVLGQPKAAPSVTLFPPSSEELQANKATLVCLISDFYPGAVTVAWKADSSPVKAGVETTTPSKQSNNKYAASSYLSLTPEQWKSHRSYSCQVTHEGSTVEKTVAPTEA
modifications: Antibody sequence
Turning to B1, the “blocking of PA-FITC binding to CHO-TEM8 cells” value (“blocking of PA-FITC binding” for short) in data set [1] is recorded as “neutralize binding of PA to its cell surface receptor, TEM8”. For the same molecule, the “binding to cells expressing mouse TEM8” value in data set [2] is “react”. The “reactivity with TEM8 protein in ELISA” value in data set [3] is “react”. In data set [4], the “binding to cells expressing human TEM8” value is on record as “react”.

B2: 1D2 Fab: fully human anti-TEM8 Fab from phage display; VH SEQ ID NO: 5, VL SEQ ID NO: 10; Fab chains SEQ ID NOs: 32, 33 (antibody)
heavy: QVQLKESGPALVKPTQTLTLTCTFSGFSLSTSGMGVSWIRQPPGKALEWLAHINLDDDKYYSTSLKTRLTISKDTSKNQVVLTMTNMDPVDTATYYCARGGYGDMDVWGQGTLVTVSSASTKGPSVFPLAPSSKSTSGGTAALGCLVKDYFPEPVTVSWNSGALTSGVHTFPAVLQSSGLYSLSSVVTVPSSSLGTQTYICNVNHKPSNTKVDKKVEPKSEF
light: DIELTQPPSVSVAPGQTARISCSGDNIRSMFVHWYQQKPGQAPVLVIYADNKRPSGIPERFSGSNSGNTATLTISGTQAEDEADYYCSSYDYNAHLVVFGGGTKLTVLGQPKAAPSVTLFPPSSEELQANKATLVCLISDFYPGAVTVAWKADSSPVKAGVETTTPSKQSNNKYAASSYLSLTPEQWKSHRSYSCQVTHEGSTVEKTVAPTEA
modifications: Antibody sequence
Regarding B2, in data set [2], the “binding to cells expressing mouse TEM8” value is listed as “react”. For the same molecule, the “reactivity with TEM8 protein in ELISA” value in data set [3] is given as “react”. Moreover, in data set [4], the “binding to cells expressing human TEM8” value was “react”.

B3: L1 Fab: fully human anti-TEM8 Fab from phage display; VH SEQ ID NO: 2, VL SEQ ID NO: 7; Fab chains SEQ ID NOs: 26, 27 (antibody)
heavy: QVQLVESGGGLVQPGGSLRLSCAASGFTFNSYAMSWVRQAPGKGLEWVSLISSGSSTYYADSVKGRFTISRDNSKNTLYLQMNSLRAEDTAVYYCARAGFKFDNWGQGTLVTVSSASTKGPSVFPLAPSSKSTSGGTAALGCLVKDYFPEPVTVSWNSGALTSGVHTFPAVLQSSGLYSLSSVVTVPSSSLGTQTYICNVNHKPSNTKVDKKVEPKSEF
light: DIELTQPPSVSVAPGQTARISCSGDSIPNYSVSWYQQKPGQAPVLVIYADSNRPSGIPERFSGSNSGNTATLTISGTQAEDEADYYCQSYDNTSPDLVFGGGTKLTVLGQPKAAPSVTLFPPSSEELQANKATLVCLISDFYPGAVTVAWKADSSPVKAGVETTTPSKQSNNKYAASSYLSLTPEQWKSHRSYSCQVTHEGSTVEKTVAPTEA
modifications: Antibody sequence
For the molecule B3, the “blocking of PA-FITC binding” value in data set [1] is “neutralize binding of PA to its cell surface receptor, TEM8”. Besides, the “binding to cells expressing mouse TEM8” value in data set [2] was “react”. Moreover, the “reactivity with TEM8 protein in ELISA” value in data set [3] is listed as “react”. Besides, in data set [4], the “binding to cells expressing human TEM8” value is given as “react”.

B4: L5 Fab: fully human anti-TEM8 Fab from phage display; VH SEQ ID NO: 4, VL SEQ ID NO: 9; Fab chains SEQ ID NOs: 30, 31 (antibody)
heavy: QVQLVESGGGLVQPGGSLRLSCAASGFTFNSYGLSWVRQAPGKGLEWVSNISSNGSYTYYADSVKGRFTISRDNSKNTLYLQMNSLRAEDTAVYYCARAGYGLFDVWGQGTLVTVSSAKTTAPSVYPLAPVCGDTTGSSVTLGCLVKGYFPEPVTLTWNSGSLSSGVHTFPAVLQSDLYTLSSSVTVTSSTWPSQSITCNVAHPASSTKVDKKIEPRGPTIKPCPPCKCPAPNLLGGPSVFIFPPKIKDVLMISLSPIVTCVVVDVSEDDPDVQISWFVNNVEVHTAQTQTHREDYNSTLRVVSALPIQHQDWMSGKEFKCKVNNKDLPAPIERTISKPKGSVRAPQVYVLPPPEEEMTKKQVTLTCMVTDFMPEDIYVEWTNNGKTELNYKNTEPVLDSDGSYFMYSKLRVEKKNWVERNSYSCSVVHEGLHNHHTTKSFSRTPGK
light: DIELTQPPSVSVAPGQTARISCSGDKLREYYVHWYQQKPGQAPVLVIYGDNKRPSGIPERFSGSNSGNTATLTISGTQAEDEADYYCSSWAGSRSGTVFGGGTKLTVLGQPKSTPTLTVFPPSSEELKENKATLVCLISNFSPSGVTVAWKANGTPITQGVDTSNPTKEGNKFMASSFLHLTSDQWRSHNSFTCQVTHEGDTVEKSLSPAECL
modifications: Antibody sequence
Consider B4, for which, in data set [1], the “blocking of PA-FITC binding” value is “neutralize binding of PA to its cell surface receptor, TEM8”. In addition, the “binding to cells expressing mouse TEM8” value in data set [2] was “react”. Also, in data set [3], the “reactivity with TEM8 protein in ELISA” value was “react”. Further, the “binding to cells expressing human TEM8” value in data set [4] is “react”.

B5: L2 Fab: fully human anti-TEM8 Fab from phage display; VH SEQ ID NO: 1, VL SEQ ID NO: 6; Fab chains SEQ ID NOs: 24, 25 (antibody)
heavy: QVQLKESGPALVKPTQTLTLTCTFSGFSLSTSGGGVSWIRQPPGKALEWLAHIYSNDDKSYSTSLKTRLTISKDTSKNQVVLTMTNMDPVDTATYYCARGGYFLDYWGQGTLVTVSSAKTTAPSVYPLAPVCGDTTGSSVTLGCLVKGYFPEPVTLTWNSGSLSSGVHTFPAVLQSDLYTLSSSVTVTSSTWPSQSITCNVAHPASSTKVDKKIEPRGPTIKPCPPCKCPAPNLLGGPSVFIFPPKIKDVLMISLSPIVTCVVVDVSEDDPDVQISWFVNNVEVHTAQTQTHREDYNSTLRVVSALPIQHQDWMSGKEFKCKVNNKDLPAPIERTISKPKGSVRAPQVYVLPPPEEEMTKKQVTLTCMVTDFMPEDIYVEWTNNGKTELNYKNTEPVLDSDGSYFMYSKLRVEKKNWVERNSYSCSVVHEGLHNHHTTKSFSRTPGK
light: DIELTQPPSVSVAPGQTARISCSGDNIGGIYVHWYQQKPGQAPVLVIYADSKRPSGIPERFSGSNSGNTATLTISGTQAEDEADYYCQSYDITSLVFGGGTKLTVLGQPKSTPTLTVFPPSSEELKENKATLVCLISNFSPSGVTVAWKANGTPITQGVDTSNPTKEGNKFMASSFLHLTSDQWRSHNSFTCQVTHEGDTVEKSLSPAECL
modifications: Antibody sequence
With B5, in data set [1], the “blocking of PA-FITC binding” value is listed as “neutralize binding of PA to its cell surface receptor, TEM8”. In addition, the “binding to cells expressing mouse TEM8” value in data set [2] is on record as “react”. Moreover, the “reactivity with TEM8 protein in ELISA” value in data set [3] is reported as “react”. For the same molecule, the “binding to cells expressing human TEM8” value in data set [4] is on record as “react”.

The values above are taken from patent publication US9181340B2, “TEM8 antibodies, conjugates thereof, and their use” (The United States of America, as represented by the …, priority 2011, dated 2015).
